From patent US20200095636A1, “ANTIDOTE-MEDIATED REVERSAL OF EXTRACELLULAR APTAMER STAINING” (Duke University, published 2020) come the findings set out here.

The target in series [1] is epidermal growth factor receptor (EGFR) on A431 epidermoid carcinoma cells (human) (UniProt P00533). The experiment in a line: flow cytometry of stained A431 cells immediately before and after FACS. A general note: Flow cytometry measures light scatter and fluorescence of single cells or particles in a stream.
Series [2] concerns the target EGFR (epidermal growth factor receptor) (Homo sapiens, UniProt P00533 P00533:25-1210). The series is described as follows: flow; apparent; A431 cells, on ice 30 min, media + 1% BSA + salmon sperm DNA; binding blocked or reversed at 37 C by antidotes A9 and mA9 but not scrambled sA9. The note with it: tags: endogenous on A431 epidermoid carcinoma cells (ATCC); label: 5' AF488. The protocol:
All aptamers were folded in PBS+/+ by denaturation at 65° C. for 5 min followed by passive cooling to ambient temperature for 3 min. In general, 500 nM aptamer solutions were used for staining, but this concentration varied as noted in some assays. For aptamer-SA staining solutions, 2:1 aptamer conjugates were prepared with 1 μM aptamer and 500 nM AF488-SA or AF647-SA. All staining solutions were prepared in Media+ and contained 1 mg/mL salmon sperm DNA to mitigate non-specific binding. All antibodies were used as 1:50 dilutions in Media+ with 1 mg/mL salmon sperm DNA. Both FITC-conjugated ICR10 (Abcam) and PE-conjugated D1D4J (Cell Signaling Technologies) monoclonal EGFR antibodies were used for staining.
A431 cells were stained with various concentrations (25, 50, 125, 250 or 500 nM) of E07 only or E07-SA conjugate mixtures prepared by reacting 1:1, 2:1 or 3:1 biotinylated E07 with tetrameric streptavidin. Stained cells were washed, analyzed by flow cytometry and their fluorescence corresponding to the amount of bound E07 or E07-SA was plotted to determine apparent binding affinities (dissociation constants; KD) and cell surface saturation (total number of receptors; Bmax). Conjugate mixtures prepared from higher E07: SA ratios had higher apparent affinities, but lower apparent saturation.

Regarding “FITC-conjugated ICR10 (Abcam) monoclonal EGFR antibody”, the losses during sorting (percent of stain fluorescence lost) in series [1] was determined as 11%. On the same count and under the same terms, in the case of “PE-conjugated D1D4J (Cell Signaling Technologies) monoclonal EGFR antibody” it was 11%. Take GGACGGAUUUAAUCGCCGUAGAAAGCAUGUCAAAGCCGGAACCGUCC (ssRNA, 2'-F C/U, 2'-OH purines, 3' idT) [E07]: the Kd in series [2] turned out to be 62.7 nM.
